Test [1] concerns the target HLA-A*02:01 (Homo sapiens, UniProt P04439, D140Y/D185E/D98H/E176V/E277Q/G131W/G231S/I119V/I121R/I166T/I218V/L300P/L318F/N151K/N90K/P208A/P217A/Q86G/Q94H/R138H/R169H/T345S). Description: MHC binding assay (UV-ligand exchange, β2m ELISA, peptide exchange yield). The conditions noted are these: binding to HLA-A*02:01. The method, boiled down: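 Peptide-HLA-A*02:01 complexes formed by UV-mediated exchange of a photocleavable ligand; exchange yield measured by streptavidin-capture ELISA detecting β2m with HRP anti-β2m, TMB read at 450 nm. Refolded monomer standards 15-500 ng/ml; samples diluted 100-fold.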
For orientation: An ELISA detects its analyte on a solid surface through an enzyme-linked reagent.

For test [2], the system named is CD8+ T cells. Briefly: In vitro immunogenicity: T-cell priming with aAPCs loaded with peptide/MHC and anti-CD28, pMHC multimer readout. Format: cell-based, human. To be noted: HLA-A*02 restricted peptides, percentage of positive wells among evaluable. The procedure: FIGS. 3A-3F describe simulation graphs of various peptides of the present disclosure. […] CD8+ T cells were primed using artificial APCs coated with anti-CD28 mAb and HLA-A*02 in complex with SeqID No 1 peptide (FIG. 3C, left panel), SeqID No 5 peptide (FIG. 3D left panel), SeqID No 32 peptide (FIG. 3E, left panel) and SeqID No 220 peptide (FIG. 3F, left panel), respectively. After three cycles of stimulation, the detection of peptide-reactive cells was performed by 2D multimer staining with A*02/SeqID No 1 (FIG. 3C), A*02/SeqID No 5 (D), A*02/SeqID No 32 (FIG. 3E) or A*02/SeqID No 220 (FIG. 3F). Right panels (FIGS. 3C, 3D, 3E and 3F) show control staining of cells stimulated with irrelevant A*02/peptide complexes. Viable singlet cells were gated for CD8+ lymphocytes. Boolean gates helped excluding false-positive events detected with multimers specific for different peptides.
In order to obtain information regarding the immunogenicity of the TUMAPs of the present invention, the inventors performed investigations using an in vitro T-cell priming assay based on repeated stimulations of CD8+ T cells with artificial antigen presenting cells (aAPCs) loaded with peptide/MHC complexes and anti-CD28 antibody.
In order to perform in vitro stimulations by artificial antigen presenting cells loaded with peptide-MHC complex (pMHC) and anti-CD28 antibody, the inventors first isolated CD8+ T cells from fresh HLA-A*02 leukapheresis products via positive selection using CD8 microbeads (Miltenyi Biotec, Bergisch-Gladbach, Germany) of healthy donors obtained from the University clinics Mannheim, Germany, after informed consent.
PBMCs and isolated CD8+ lymphocytes were incubated in T-cell medium (TCM) until use consisting of RPMI-Glutamax (Invitrogen, Karlsruhe, Germany) supplemented with 10% heat inactivated human AB serum (PAN-Biotech, Aidenbach, Germany), 100 U/ml Penicillin/100 μg/ml Streptomycin (Cambrex, Cologne, Germany), 1 mM sodium pyruvate (CC Pro, Oberdorla, Germany), 20 μg/ml Gentamycin (Cambrex). 2.5 ng/ml IL-7 (PromoCell, Heidelberg, Germany) and 10 U/ml IL-2 (Novartis Pharma, Nümberg, Germany) were also added to the TCM at this step.
Generation of pMHC/anti-CD28 coated beads, T-cell stimulations and readout was performed in a highly defined in vitro system using four different pMHC molecules per stimulation condition and 8 different pMHC molecules per readout condition.
The purified co-stimulatory mouse IgG2a anti human CD28 Ab 9.3 (Jung et al., 1987) was chemically biotinylated using Sulfo-N-hydroxysuccinimidobiotin as recommended by the manufacturer (Perbio, Bonn, Germany). Beads used were 5.6 μm diameter streptavidin coated polystyrene particles (Bangs Laboratories, Illinois, USA).
800.000 beads/200 μl were coated in 96-well plates in the presence of 4×12.5 ng different biotin-pMHC, washed and 600 ng biotin anti-CD28 were added subsequently in a volume of 200 μl. Stimulations were initiated in 96-well plates by co-incubating 1×10^6 CD8+ T cells with 2×10^6 washed coated beads in 200 μl TCM supplemented with 5 ng/ml IL-12 (PromoCell) for 3 days at 37° C. Half of the medium was then exchanged by fresh TCM supplemented with 80 U/ml IL-2 and incubating was continued for 4 days at 37° C. This stimulation cycle was performed for a total of three times. For the pMHC multimer readout using 8 different pMHC molecules per condition, a two-dimensional combinatorial coding approach was used as previously described (Andersen et al., 2012) with minor modifications encompassing coupling to 5 different fluorochromes. Finally, multimeric analyses were performed by staining the cells with Live/dead near IR dye (Invitrogen, Karlsruhe, Germany), CD8-FITC antibody clone SK1 (BD, Heidelberg, Germany) and fluorescent pMHC multimers. For analysis, a BD LSRII SORP cytometer equipped with appropriate lasers and filters was used.

“96 (ILIDKTSFV; listed as Homo sapiens) [compound 96]”: in test [1], the “Peptide Exchange (MHC class I binding score, peptide exchange yield)” value (“Peptide Exchange” below) is listed as ““+++” (>50 = +++)”. Further, in test [2], the “Wells positive [%]” value is on record as ““+” (<20% = +)”.

For the substance “192 (YIQEYLTLL; listed as Homo sapiens) [compound 192]”, the “Peptide Exchange” value in test [1] is ““+++” (>50 = +++)”. Further, the “Wells positive [%]” value in test [2] is ““+” (<20% = +)”.

“54 (FLYPFPLALF; listed as Homo sapiens) [compound 54]”: in test [1], the “Peptide Exchange” value is given as ““+++” (>50 = +++)”. For the same substance, in test [2], the “Wells positive [%]” value is listed as ““+” (<20% = +)”.

Take “307 (LLLTKPTEA; listed as Homo sapiens) [compound 307]”: the “Peptide Exchange” value in test [1] is ““+++” (>50 = +++)”. For the same substance, in test [2], the “Wells positive [%]” value is given as ““+” (<20% = +)”.

For the substance “200 (YMFEEVPIVI; listed as Homo sapiens) [compound 200]”, in test [1], the “Peptide Exchange” value was ““++++” (>75% = ++++)”. Moreover, the “Wells positive [%]” value in test [2] was ““+” (<20% = +)”.

For “322 (SLASIHVPL; listed as Homo sapiens) [compound 322]”, the “Peptide Exchange” value in test [1] is on record as ““+++” (>50 = +++)”. Moreover, the “Wells positive [%]” value in test [2] is listed as ““+” (<20% = +)”.

Regarding “320 (TIAPVTVAV; listed as Homo sapiens) [compound 320]”, the “Peptide Exchange” value in test [1] is reported as ““++++” (>75% = ++++)”. The “Wells positive [%]” value in test [2] is reported as ““+” (<20% = +)”.

Regarding “26 (AVLLVLPLV; listed as Homo sapiens) [compound 26]”, the “Peptide Exchange” value in test [1] was ““+++” (>50 = +++)”. Moreover, in test [2], the “Wells positive [%]” value was ““+” (<20% = +)”.

Regarding “32 (FIDKFTPPV; listed as Homo sapiens) [compound 32]”, the “Peptide Exchange” value in test [1] is recorded as ““++++” (>75% = ++++)”. For the same substance, in test [2], the “Wells positive [%]” value was ““++++” (>=70% = ++++)”.

For “102 (IQDRAVPSL; listed as Homo sapiens) [compound 102]”, the “Peptide Exchange” value in test [1] is ““++” (>20% = ++)”. In test [2], the “Wells positive [%]” value was ““+” (<20% = +)”.

For “112 (KTLDVDATYEI; listed as Homo sapiens) [compound 112]”, the “Peptide Exchange” value in test [1] is recorded as ““+++” (>50 = +++)”. Besides, the “Wells positive [%]” value in test [2] is ““+” (<20% = +)”.

These data come from US11260115B1, “Peptides and combination of peptides for use in immunotherapy against CLL and other cancers” (immatics biotechnologies GmbH, priority 2015, dated 2022).
